This is an account of results in PMC9061753, “Mre11-Rad50 oligomerization promotes DNA double-strand break repair” (Nature Communications, 2022).

Changes are numbered by the printed parent chain. Names and notes keep the numbering of the source.

In series [1] the target is T1, Mre11-Rad50 (MRwt) (S. cerevisiae, UniProt P32829;P12753 1-692;1-1312). In words: EMSA; ATPgS, 5 mM Mg2+, 30 mM NaCl; mean of the 3 visible of 4 replicates (14.03, 13.92, 12.72); apparent; Oligo EMSA: 25 mM Tris acetate pH 7.5, 1 mM DTT, 0.25 mg/ml BSA, 5 mM Mg acetate, 1 mM ATPgS, 30 mM NaCl, 30 C 15 min, 100 nM bp DNA; plasmid EMSA: 80 mM KCl, plus 1 mM MnCl2, 30 C 1 h; mass photometry 25 mM KCl. The following applies: protein: recombinant; tags: Mre11-6xHis; Rad50 untagged; chain copies: 2;2; label: 3'-32P on strand 1 (terminal transferase); blunt before 3' labeling. (In general: In EMSA bound probe runs differently from free probe, usually more slowly.)

The target in series [2] is T2, MRho (S. cerevisiae, UniProt P32829;P12753 1-692;1-1312, N121A;D124N;Rad50:). In words: mass photometry; 25 mM KCl; Oligo EMSA: 25 mM Tris acetate pH 7.5, 1 mM DTT, 0.25 mg/ml BSA, 5 mM Mg acetate, 1 mM ATPgS, 30 mM NaCl, 30 C 15 min, 100 nM bp DNA; plasmid EMSA: 80 mM KCl, plus 1 mM MnCl2, 30 C 1 h; mass photometry 25 mM KCl. The note with it: protein: recombinant, tags: Mre11-6xHis, Rad50 untagged, chain copies: 2;2.

The target of series [3] is Mre11-Rad50-Xrs2 (MRX) (S. cerevisiae, UniProt P32829;P12753;P33301 1-692;1-1312;1-854). The description is as above. The note with it: protein: recombinant; tags: His-Mre11; Rad50 untagged; Xrs2-FLAG; chain copies: 2;2;1; blunt.
Series [4] concerns the target T1, Mre11-Rad50 (MRwt). The series can be described thus: mass photometry; 25 mM KCl; two dimers per DNA detected; Oligo EMSA: 25 mM Tris acetate pH 7.5, 1 mM DTT, 0.25 mg/ml BSA, 5 mM Mg acetate, 1 mM ATPgS, 30 mM NaCl, 30 C 15 min, 100 nM bp DNA; plasmid EMSA: 80 mM KCl, plus 1 mM MnCl2, 30 C 1 h; mass photometry 25 mM KCl. The note with it: protein: recombinant; tags: Mre11-6xHis; Rad50 untagged; chain copies: 2;2; blunt.

In series [5] the target is T1, Mre11-Rad50 (MRwt). In words: EMSA; ATPgS, 5 mM Mg2+, 30 mM NaCl; mean of the 2 visible of 3 replicates (7.787, 6.135); apparent; Oligo EMSA: 25 mM Tris acetate pH 7.5, 1 mM DTT, 0.25 mg/ml BSA, 5 mM Mg acetate, 1 mM ATPgS, 30 mM NaCl, 30 C 15 min, 100 nM bp DNA; plasmid EMSA: 80 mM KCl, plus 1 mM MnCl2, 30 C 1 h; mass photometry 25 mM KCl. The following applies: protein: recombinant; tags: Mre11-6xHis; Rad50 untagged; chain copies: 2;2; label: 3'-32P; blunt before 3' labeling.

Series [6] concerns the molecule itself. The series can be described thus: negative staining TEM; purified complexes without DNA; 25 mM Tris acetate pH 7.5, 1 mM DTT, 120 mM KCl; 4 °C, or 30 °C for 30 min with 5 mM Mg2+, 1 mM Mn2+, 1 mM ATPγS; oligomers stable at 150 mM KCl or NaCl; step: M2R2 to (M2R2)n.
Series [7] deals with the molecule itself. The series can be described thus: negative staining TEM; proteins on linear or circular plasmid DNA, 30 °C 30 min, Mg2+, Mn2+, ATPγS (or ATP), 30-50 mM KCl; 50-100 nM MR; oligomerization on DNA.
Series [8] addresses MRlo (S. cerevisiae, UniProt P32829;P12753 1-692;1-1312, L116A;I119A;T127A;L128A;Rad50:). The series can be described thus: mass photometry; 25 mM KCl, 5 nM protein, 2.5 nM DNA; Oligo EMSA: 25 mM Tris acetate pH 7.5, 1 mM DTT, 0.25 mg/ml BSA, 5 mM Mg acetate, 1 mM ATPgS, 30 mM NaCl, 30 C 15 min, 100 nM bp DNA; plasmid EMSA: 80 mM KCl, plus 1 mM MnCl2, 30 C 1 h; mass photometry 25 mM KCl. The following applies: protein: recombinant; tags: Mre11-6xHis; Rad50 untagged; chain copies: 2;2; 1-nt 5' overhangs as printed.

In series [9] the target is T1, Mre11-Rad50 (MRwt). The series can be described thus: EMSA; ATPgS, 5 mM Mg2+, 30 mM NaCl; mean of the 3 visible of 4 replicates (20.5, 22.96, 22.55); apparent; Oligo EMSA: 25 mM Tris acetate pH 7.5, 1 mM DTT, 0.25 mg/ml BSA, 5 mM Mg acetate, 1 mM ATPgS, 30 mM NaCl, 30 C 15 min, 100 nM bp DNA; plasmid EMSA: 80 mM KCl, plus 1 mM MnCl2, 30 C 1 h; mass photometry 25 mM KCl. The following applies: protein: recombinant; tags: Mre11-6xHis; Rad50 untagged; chain copies: 2;2; label: 3'-32P on strand 1 (terminal transferase); blunt before 3' labeling.

Series [10] concerns the target T1, Mre11-Rad50 (MRwt). In words: mass photometry; 25 mM KCl; Oligo EMSA: 25 mM Tris acetate pH 7.5, 1 mM DTT, 0.25 mg/ml BSA, 5 mM Mg acetate, 1 mM ATPgS, 30 mM NaCl, 30 C 15 min, 100 nM bp DNA; plasmid EMSA: 80 mM KCl, plus 1 mM MnCl2, 30 C 1 h; mass photometry 25 mM KCl. The following applies: protein: recombinant; tags: Mre11-6xHis; Rad50 untagged; chain copies: 2;2; bottom as printed is a circular permutation of the complement of top (possible printing error); stated 73 bp.

In series [11] the target is T2, MRho. The series can be described thus: mass photometry; 25 mM KCl; two dimers per DNA detected; Oligo EMSA: 25 mM Tris acetate pH 7.5, 1 mM DTT, 0.25 mg/ml BSA, 5 mM Mg acetate, 1 mM ATPgS, 30 mM NaCl, 30 C 15 min, 100 nM bp DNA; plasmid EMSA: 80 mM KCl, plus 1 mM MnCl2, 30 C 1 h; mass photometry 25 mM KCl. The following applies: protein: recombinant; tags: Mre11-6xHis; Rad50 untagged; chain copies: 2;2; bottom as printed is a circular permutation of the complement of top (possible printing error); stated 73 bp.

T1 sequence (P32829 whole entry, one chain of several): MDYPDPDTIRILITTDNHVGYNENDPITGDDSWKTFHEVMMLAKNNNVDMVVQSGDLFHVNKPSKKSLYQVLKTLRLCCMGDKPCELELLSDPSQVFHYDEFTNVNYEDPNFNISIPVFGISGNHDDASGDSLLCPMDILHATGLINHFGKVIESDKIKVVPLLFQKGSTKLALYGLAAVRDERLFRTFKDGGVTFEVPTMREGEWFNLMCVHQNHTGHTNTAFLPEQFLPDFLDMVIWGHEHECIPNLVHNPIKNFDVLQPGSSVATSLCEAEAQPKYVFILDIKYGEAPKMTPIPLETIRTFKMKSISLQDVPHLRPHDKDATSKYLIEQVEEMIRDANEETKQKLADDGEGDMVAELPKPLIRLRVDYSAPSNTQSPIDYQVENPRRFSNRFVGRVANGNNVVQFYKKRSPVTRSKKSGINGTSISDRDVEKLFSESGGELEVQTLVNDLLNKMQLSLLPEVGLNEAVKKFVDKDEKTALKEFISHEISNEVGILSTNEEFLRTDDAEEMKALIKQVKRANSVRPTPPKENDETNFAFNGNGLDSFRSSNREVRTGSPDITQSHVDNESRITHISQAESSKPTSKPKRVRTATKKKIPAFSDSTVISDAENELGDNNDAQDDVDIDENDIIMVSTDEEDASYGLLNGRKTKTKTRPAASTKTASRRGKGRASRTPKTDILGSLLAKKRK
T2 sequence (P32829 whole entry, stated change not applied, one chain of several): as the sequence (P32829 whole entry, one chain of several) above
Sequence of MRlo (P32829 whole entry, stated change not applied, one chain of several): as the sequence (P32829 whole entry, one chain of several) above
Sequence of Mre11-Rad50-Xrs2 (MRX) (P32829 whole entry, chain 1 of 2): as the sequence (P32829 whole entry, one chain of several) above
Sequence of Mre11-Rad50-Xrs2 (MRX) (P33301 whole entry, chain 3 of 2): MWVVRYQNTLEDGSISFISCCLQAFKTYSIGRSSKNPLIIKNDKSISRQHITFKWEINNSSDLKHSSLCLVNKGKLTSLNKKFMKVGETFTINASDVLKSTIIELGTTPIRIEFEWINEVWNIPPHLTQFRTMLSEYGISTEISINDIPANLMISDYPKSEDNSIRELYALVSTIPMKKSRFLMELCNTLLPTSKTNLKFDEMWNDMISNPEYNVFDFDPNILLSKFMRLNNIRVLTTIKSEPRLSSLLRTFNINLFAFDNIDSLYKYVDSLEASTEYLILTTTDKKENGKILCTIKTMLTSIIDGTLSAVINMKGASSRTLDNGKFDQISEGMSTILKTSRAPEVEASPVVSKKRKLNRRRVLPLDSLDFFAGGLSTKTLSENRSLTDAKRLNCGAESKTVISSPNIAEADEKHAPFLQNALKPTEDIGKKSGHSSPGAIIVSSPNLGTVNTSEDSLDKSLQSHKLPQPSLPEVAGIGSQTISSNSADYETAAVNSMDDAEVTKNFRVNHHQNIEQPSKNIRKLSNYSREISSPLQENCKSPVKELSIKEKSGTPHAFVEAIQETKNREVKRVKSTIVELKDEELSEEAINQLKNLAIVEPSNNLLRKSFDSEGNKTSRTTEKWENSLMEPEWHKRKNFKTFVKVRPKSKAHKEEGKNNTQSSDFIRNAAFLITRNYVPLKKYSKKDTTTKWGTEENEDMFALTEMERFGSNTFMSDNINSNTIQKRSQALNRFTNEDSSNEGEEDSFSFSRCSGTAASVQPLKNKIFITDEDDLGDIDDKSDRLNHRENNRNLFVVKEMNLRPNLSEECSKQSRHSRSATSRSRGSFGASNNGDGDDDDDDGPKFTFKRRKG

B1: 31 bp EMSA (X12-3SC) (dsDNA)
DNA 1: TTGCTAGGACATGCTGTCTAGAGACTATCGC
DNA 2: GCGATAGTCTCTAGACAGCATGTCCTAGCAA
As to B1, in [1], the Kd was approximately 13.6 nM.

B2: 106 bp mass photometry (dsDNA)
DNA 1: TTAGCTCCTACGCGGAACGAGACCTACCAATATACCTATATCAATGGCCTCCCACGCATAAGCCTCGGGAGCTCGACCATCTGGTCTCATCGGACACTTAGGACCA
DNA 2: TGGTCCTAAGTGTCCGATGAGACCAGATGGTCGAGCTCCCGAGGCTTATGCGTGGGAGGCCATTGATATAGGTATATTGGTAGGTCTCGTTCCGCGTAGGAGCTAA
For B2, the binding result in [2] (blunt), in [3] and in series [4] was “binds” each time.

B3: 70 bp EMSA (PC210/PC211) (dsDNA)
DNA 1: GTAAGTGCCGCGGTGCGGGTGCCAGGGCGTGCCCTTGGGCTCCCCGGGCGCGTACTCCACCTCATGCATC
DNA 2: GATGCATGAGGTGGAGTACGCGCCCGGGGAGCCCAAGGGCACGCCCTGGCACCCGCACCGCGGCACTTAC
modifications: biotin positions marked in table
Consider B3, for which, in [5], the Kd is approximately 6.96 nM.

B4: S. cerevisiae Rad50, wild type, untagged (co-expressed subunit) (natural protein, UniProt P12753 1-1312, looked up)
chain: MSAIYKLSIQGIRSFDSNDRETIEFGKPLTLIVGMNGSGKTTIIECLKYATTGDLPPNSKGGVFIHDPKITGEKDIRAQVKLAFTSANGLNMIVTRNIQLLMKKTTTTFKTLEGQLVAINNSGDRSTLSTRSLELDAQVPLYLGVPKAILEYVIFCHQEDSLWPLSEPSNLKKKFDEIFQAMKFTKALDNLKSIKKDMSVDIKLLKQSVEHLKLDKDRSKAMKLNIHQLQTKIDQYNEEVSEIESQLNEITEKSDKLFKSNQDFQKILSKVENLKNTKLSISDQVKRLSNSIDILDLSKPDLQNLLANFSKVLMDKNNQLRDLETDISSLKDRQSSLQSLSNSLIRRQGELEAGKETYEKNRNHLSSLKEAFQHKFQGLSNIENSDMAQVNHEMSQFKAFISQDLTDTIDQFAKDIQLKETNLSDLIKSITVDSQNLEYNKKDRSKLIHDSEELAEKLKSFKSLSTQDSLNHELENLKTYKEKLQSWESENIIPKLNQKIEEKNNEMIILENQIEKFQDRIMKTNQQADLYAKLGLIKKSINTKLDELQKITEKLQNDSRIRQVFPLTQEFQRADLEMDFQKLFINMQKNIAINNKKMHELDRRYTNALYNLNTIEKDLQDNQKSKEKVIQLLSENLPEDCTIDEYNDVLEETELSYKTALENLKMHQTTLEFNRKALEIAERDSCCYLCSRKFENESFKSKLLQELKTKTDANFEKTLKDTVQNEKEYLHSLRLLEKHIITLNSINEKIDNSQKCLEKAKEETKTSKSKLDELEVDSTKLKDEKELAESEIRPLIEKFTYLEKELKDLENSSKTISEELSIYNTSEDGIQTVDELRDQQRKMNDSLRELRKTISDLQMEKDEKVRENSRMINLIKEKELTVSEIESSLTQKQNIDDSIRSKRENINDIDSRVKELEARIISLKNKKDEAQSVLDKVKNERDIQVRNKQKTVADINRLIDRFQTIYNEVVDFEAKGFDELQTTIKELELNKAQMLELKEQLDLKSNEVNEEKRKLADSNNEEKNLKQNLELIELKSQLQHIESEISRLDVQNAEAERDKYQEESLRLRTRFEKLSSENAGKLGEMKQLQNQIDSLTHQLRTDYKDIEKNYHKEWVELQTRSFVTDDIDVYSKALDSAIMKYHGLKMQDINRIIDELWKRTYSGTDIDTIKIRSDEVSSTVKGKSYNYRVVMYKQDVELDMRGRCSAGQKVLASIIIRLALSETFGANCGVIALDEPTTNLDEENIESLAKSLHNIINMRRHQKNFQLIVITHDEKFLGHMNAAAFTDHFFKVKRDDRQKSQIEWVDINRVTY
notes: Rad50, S. cerevisiae, untagged; also called Rad50^wt; untagged Rad50; source: Sf9, co-expressed with Mre11-6xHis (and FLAG-Xrs2)
Regarding B4, the binding result in series [6] is “binds”.

B5: S. cerevisiae Rad50^N121A/D124N, expressed and purified alone (natural protein, UniProt P12753 1-1312, looked up)
chain: B4 chain with N121A, D124N
notes: Rad50, S. cerevisiae; also called Rad50^ho
As for B5, the binding result in series [7] is “binds”.

B6: S. cerevisiae Rad50, wild type, expressed and purified alone (natural protein, UniProt P12753 1-1312, looked up)
chain: B4 chain
notes: Rad50, S. cerevisiae; also called Rad50^wt
As to B6, in series [7], the binding result is on record as “binds”.

B7: 197 bp mass photometry (dsDNA)
DNA 1: GCTTCGTATGTTTCTCCTGCTTATCACCTTCTTGAAGGCTTCCCATTCATTCAGGAACCGCCTTCTGGTGATTTGCAAGAACGCGTACTTATTCGCCACCATGATTATGACCAGTGTTTCCAGTCCGTTCAGTTGTTGCAGTGGAATAGTCAGGTTAAATTTAATGTGACCGTTTATCGCAATCTGCCGACCACTCG
DNA 2: GCGAGTGGTCGGCAGATTGCGATAAACGGTCACATTAAATTTAACCTGACTATTCCACTGCAACAACTGAACGGACTGGAAACACTGGTCATAATCATGGTGGCGAATAAGTACGCGTTCTTGCAAATCACCAGAAGGCGGTTCCTGAATGAATGGGAAGCCTTCAAGAAGGTGATAAGCAGGAGAAACATACGAAG
For B7, the binding result in [2] (1-nt 5' overhangs as printed) is listed as “binds”; in series [8], “no binding”.

B8: 20 bp EMSA (PC216_20 nt) (dsDNA)
DNA 1: CGTACTCCACCTCATGCATC
DNA 2: GATGCATGAGGTGGAGTACG
modifications: biotin position marked on a T of strand 2 in table
Regarding B8, the Kd in series [9] was approximately 22 nM.

B9: 73 bp mass photometry (dsDNA)
DNA 1: GACCACCCTTTTTGATATAATATACCTATATCAATGGGCTCCCACGCAATTCGGCAGATACGTTCTGAGGGAA
DNA 2: GCCCATTGATATAGGTATATTATATCAAAAAGGGTGGTCTTCCCTCAGAACGTATCTGCCGAATTGCGTGGGA
For B9, the binding result in series [10] and in [11] was “binds” in each case.
